Reference: PMC5382714

Columns and labels:
Test in all cases: co-IP
GFP-tagged Rab4 = GFP-tagged Rab4 (UniProt P20338)
GFP-tagged GRIP1 = GFP-tagged GRIP1 (UniProt P97879)
[1] = target: Syntaxin13 (Stx13), endogenous in HEK cells (human (endogenous in HEK293T)) (UniProt Q86Y82)
UniProt Q86Y82, sequence (Q86Y82 whole entry): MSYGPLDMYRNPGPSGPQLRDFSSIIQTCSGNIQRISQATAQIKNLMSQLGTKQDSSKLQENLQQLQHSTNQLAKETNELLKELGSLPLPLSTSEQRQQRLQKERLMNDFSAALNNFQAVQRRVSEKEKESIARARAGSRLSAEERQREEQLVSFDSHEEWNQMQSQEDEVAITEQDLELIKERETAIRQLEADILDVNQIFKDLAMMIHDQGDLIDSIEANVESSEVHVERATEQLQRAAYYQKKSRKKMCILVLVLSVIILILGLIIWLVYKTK

UniProt P20338, sequence (P20338 whole entry): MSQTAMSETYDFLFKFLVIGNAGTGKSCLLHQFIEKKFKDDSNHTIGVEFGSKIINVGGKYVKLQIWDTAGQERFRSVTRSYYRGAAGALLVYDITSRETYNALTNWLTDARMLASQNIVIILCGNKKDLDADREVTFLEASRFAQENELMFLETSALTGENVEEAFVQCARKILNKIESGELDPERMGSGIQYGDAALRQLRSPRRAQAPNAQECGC
UniProt P97879, sequence (P97879 whole entry): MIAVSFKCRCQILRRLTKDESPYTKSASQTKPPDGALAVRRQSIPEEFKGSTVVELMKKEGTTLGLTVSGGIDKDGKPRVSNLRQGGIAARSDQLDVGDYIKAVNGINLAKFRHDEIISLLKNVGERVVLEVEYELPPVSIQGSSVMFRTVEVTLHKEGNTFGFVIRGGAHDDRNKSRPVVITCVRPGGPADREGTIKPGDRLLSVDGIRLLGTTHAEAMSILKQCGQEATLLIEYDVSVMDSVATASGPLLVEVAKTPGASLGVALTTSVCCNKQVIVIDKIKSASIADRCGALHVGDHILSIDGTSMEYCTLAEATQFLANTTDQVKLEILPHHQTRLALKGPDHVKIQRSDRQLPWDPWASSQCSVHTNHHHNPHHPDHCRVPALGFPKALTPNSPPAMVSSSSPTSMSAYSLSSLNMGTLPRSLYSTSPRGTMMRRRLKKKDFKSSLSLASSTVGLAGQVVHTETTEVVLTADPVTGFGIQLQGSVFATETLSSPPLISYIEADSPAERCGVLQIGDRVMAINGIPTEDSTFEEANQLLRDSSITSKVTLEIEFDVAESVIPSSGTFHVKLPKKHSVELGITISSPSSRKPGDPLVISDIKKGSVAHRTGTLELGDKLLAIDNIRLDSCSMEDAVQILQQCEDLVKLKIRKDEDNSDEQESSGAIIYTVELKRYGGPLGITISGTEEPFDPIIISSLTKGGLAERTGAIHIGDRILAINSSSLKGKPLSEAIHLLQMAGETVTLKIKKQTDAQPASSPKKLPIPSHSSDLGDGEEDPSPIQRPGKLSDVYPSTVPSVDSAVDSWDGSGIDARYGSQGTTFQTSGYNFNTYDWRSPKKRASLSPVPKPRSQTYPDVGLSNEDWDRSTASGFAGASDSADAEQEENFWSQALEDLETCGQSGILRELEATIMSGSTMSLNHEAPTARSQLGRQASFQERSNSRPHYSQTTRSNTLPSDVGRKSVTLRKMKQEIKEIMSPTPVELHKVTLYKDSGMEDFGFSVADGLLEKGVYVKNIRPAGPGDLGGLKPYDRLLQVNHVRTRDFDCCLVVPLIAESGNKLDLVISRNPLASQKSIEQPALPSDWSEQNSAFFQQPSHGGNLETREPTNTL

GRASP1 co-precipitated with Rab4, % WT (GFP-tagged Rab4) [% WT]	GRASP1 co-precipitated with GRIP1, % WT (GFP-tagged GRIP1) [% WT]	GRASP1 co-precipitated with Stx13, % WT [1] [% WT]	Substance
34.8	42.6	62.7	GRASP1 GBD deletion mutant (dGBD) (from UniProt Q8VD04 1-806) (natural protein)
105	43.7	83.2	GRASP1 R822Q (intellectual disability mutant) (from UniProt Q8VD04 1-806) (natural protein)
98.2	206	553	GRASP1 S73N (intellectual disability mutant) (from UniProt Q8VD04 1-806) (natural protein)
